Molecular target: HSV-1 cytoplasmic capsids (HSV-1, KOS strain) (UniProt P10202)
Assay: co-sedimentation

Sequence of UniProt P10202 (P10202 whole entry, looked up): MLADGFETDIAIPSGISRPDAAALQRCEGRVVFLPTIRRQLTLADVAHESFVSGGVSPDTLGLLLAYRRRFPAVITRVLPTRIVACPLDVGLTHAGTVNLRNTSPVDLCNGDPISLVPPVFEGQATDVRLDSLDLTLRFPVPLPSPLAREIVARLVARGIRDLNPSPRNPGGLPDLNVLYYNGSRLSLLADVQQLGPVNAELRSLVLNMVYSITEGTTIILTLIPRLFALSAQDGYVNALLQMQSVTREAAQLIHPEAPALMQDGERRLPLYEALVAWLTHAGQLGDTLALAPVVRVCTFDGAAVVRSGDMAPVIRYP

B1: UL16 tegument protein of herpes simplex virus (natural protein)
chain: MAQLGPRRPLAPPGPPGTLPRPDSRAGARGTRDRVDDLGTDVDSIARIVNSVFVWRVVRADERLKIFRCLTVLTEPLCQVALPNPDPGRALFCEIFLYLTRPKALRLPPNTFFALFFFNRERRYCAIVHLRSVTHPLTPLLCTLTFARIRAATPPEETPDPTTEQLAEEPVVGELDGAYLVPAKTPPEPGACCALGPGAWWHLPSGQIYCWAMDSDLGSLCPPGSRARHLGWLLARITNHPGGCESCAPPPHIDSANALWLSSVVTESCPCVAPCLWAKMAQCTLAVQGDASLCPLLFGHPVDTVTLLQAPRRPCITDRLQEVVGGRCGADNIPPTSAGWRLCVFSSYISRLFATSCPTVARAVARASSSDPE
- amount of UL16 on ΔUL37 capsids relative to WT: 42%

— article PMC2824050
